# Results reported in patent US20220332785A1.
# Residue numbers refer to the chain shown, from its start.
# B1: 4285-PBL-TCR3 (TCR)
# TCR alpha: KDQVFQPSTVASSEGAVVEIFCNHSVSNAYNFFWYLHFPGCAPRLLVKGSKPSQQGRYNMTYERFSSSLLILQVREADAAVYYCAVEDRRRTALIFGKGTTLSVSSNIQNPEPAVYQLKDPRSQDSTLCLFTDFDSQINVPKTMESGTFITDKCVLDMKAMDSKSNGAIAWSNQTSFTCQDIFKETNATYPSSDVPCDATLTEKSFETDMNLNFQNLLVIVLRILLLKVAGFNLLMTLRLWSS
# TCR beta: EPEVTQTPSHQVTQMGQEVILRCVPISNHLYFYWYRQILGQKVEFLVSFYNNEISEKSEIFDDQFSVERPDGSNFTLKIRSTKLEDSAMYFCASSEYQSQSNEQFFGPGTRLTVLEDLRNVTPPKVSLFEPSKAEIANKQKATLVCLARGFFPDHVELSWWVNGKEVHSGVCTDPQAYKESNYSYCLSSRLRVSATFWHNPRNHFRCQVQFHGLSEEDKWPEGSPKPVTQNISAEAWGRADCGITSASYQQGVLSATILYEILLGKATLYAVLVSTLVVMAMVKRKNS
# B2: 4285-PBL-TCR6 (TCR)
# TCR alpha: QQVMQIPQYQHVQEGEDFTTYCNSSTTLSNIQWYKQRPGGHPVFLIQLVKSGEVKKQKRLTFQFGEAKKNSSLHITATQTTDVGTYFCAGPGGAGSYQLTFGKGTKLSVIPNIQNPEPAVYQLKDPRSQDSTLCLFTDFDSQINVPKTMESGTFITDKCVLDMKAMDSKSNGAIAWSNQTSFTCQDIFKETNATYPSSDVPCDATLTEKSFETDMNLNFQNLLVIVLRILLLKVAGFNLLMTLRLWSS
# TCR beta: QVTQNPRYLITVTGKKLTVTCSQNMNHEYMSWYRQDPGLGLRQIYYSMNVEVTDKGDVPEGYKVSRKEKRNFPLILESPSPNQTSLYFCASSPFVVIGQINEQYFGPGTRLTVTEDLRNVTPPKVSLFEPSKAEIANKQKATLVCLARGFFPDHVELSWWVNGKEVHSGVCTDPQAYKESNYSYCLSSRLRVSATFWHNPRNHFRCQVQFHGLSEEDKWPEGSPKPVTQNISAEAWGRADCGITSASYQQGVLSATILYEILLGKATLYAVLVSTLVVMAMVKRKNS
# B3: 4285-PBL-TCR1 (TCR)
# TCR alpha: KTTQPNSMESNEEEPVHLPCNHSTISGTDYIHWYRQLPSQGPEYVIHGLTSNVNNRMASLAIAEDRKSSTLILHRATLRDAAVYYCILRDNNARLMFGDGTQLVVKPNIQNPEPAVYQLKDPRSQDSTLCLFTDFDSQINVPKTMESGTFITDKCVLDMKAMDSKSNGAIAWSNQTSFTCQDIFKETNATYPSSDVPCDATLTEKSFETDMNLNFQNLLVIVLRILLLKVAGFNLLMTLRLWSS
# TCR beta: QVTQNPRYLITVTGKKLTVTCSQNMNHEYMSWYRQDPGLGLRQIYYSMNVEVTDKGDVPEGYKVSRKEKRNFPLILESPSPNQTSLYFCASGLVGFNQPQHFGDGTRLSILEDLRNVTPPKVSLFEPSKAEIANKQKATLVCLARGFFPDHVELSWWVNGKEVHSGVCTDPQAYKESNYSYCLSSRLRVSATFWHNPRNHFRCQVQFHGLSEEDKWPEGSPKPVTQNISAEAWGRADCGITSASYQQGVLSATILYEILLGKATLYAVLVSTLVVMAMVKRKNS
# B4: 4285-PBL-TCR7 (TCR)
# TCR alpha: ELKVEQNPLFLSMQEGKNYTIYCNYSTTSDRLYWYRQDPGKSLESLFVLLSNGAVKQEGRLMASLDTKARLSTLHITAAVHDLSATYFCAVAHMDSNYQLIWGAGTKLIIKPNIQNPEPAVYQLKDPRSQDSTLCLFTDFDSQINVPKTMESGTFITDKCVLDMKAMDSKSNGAIAWSNQTSFTCQDIFKETNATYPSSDVPCDATLTEKSFETDMNLNFQNLLVIVLRILLLKVAGFNLLMTLRLWSS
# TCR beta: GVTQTPKFRVLKTGQSMTLLCAQDMNHEYMYWYRQDPGMGLRLIHYSVGEGTTAKGEVPDGYNVSRLKKQNFLLGLESAAPSQTSVYFCASSYAGLAAPREQFFGPGTRLTVLEDLRNVTPPKVSLFEPSKAEIANKQKATLVCLARGFFPDHVELSWWVNGKEVHSGVCTDPQAYKESNYSYCLSSRLRVSATFWHNPRNHFRCQVQFHGLSEEDKWPEGSPKPVTQNISAEAWGRADCGITSASYQQGVLSATILYEILLGKATLYAVLVSTLVVMAMVKRKNS
# B5: 4285-PBL-TCR2 (TCR)
# TCR alpha: KTTQPPSMDCAEGRAANLPCNHSTISGNEYVYWYRQIHSQGPQYIIHGLKNNETNEMASLIITEDRKSSTLILPHATLRDTAVYYCIVRARANAGGTSYGKLTFGQGTILTVHPNIQNPEPAVYQLKDPRSQDSTLCLFTDFDSQINVPKTMESGTFITDKCVLDMKAMDSKSNGAIAWSNQTSFTCQDIFKETNATYPSSDVPCDATLTEKSFETDMNLNFQNLLVIVLRILLLKVAGFNLLMTLRLWSS
# TCR beta: GITQSPKYLFRKEGQNVTLSCEQNLNHDAMYWYRQDPGQGLRLIYYSQIVNDFQKGDIAEGYSVSREKKESFPLTVTSAQKNPTAFYLCASLQFNEQFFGPGTRLTVLEDLRNVTPPKVSLFEPSKAEIANKQKATLVCLARGFFPDHVELSWWVNGKEVHSGVCTDPQAYKESNYSYCLSSRLRVSATFWHNPRNHFRCQVQFHGLSEEDKWPEGSPKPVTQNISAEAWGRADCGITSASYQQGVLSATILYEILLGKATLYAVLVSTLVVMAMVKRKNS
# B6: 4285-PBL-TCR5 (TCR)
# TCR alpha: B5 TCR alpha with A90G, R91S, A92P, N93G
# TCR beta: B5 TCR beta with L92S, Q93I, F94R, N95T, Q97A, P101Q, L108V
# B7: 4285-PBL-TCR9 (TCR)
# TCR alpha: B5 TCR alpha
# TCR beta: B5 TCR beta with S91T, L92R, Q93T, F94G, Q97A, P101Q, L108V
# Target: p53^R175H LP … (SEQ ID NO: 111) in the context of HLA-DRB1*13:01 (human)
# Assay: cell-based or functional assay
row,"functional avidity: interferon-gamma secretion (ELISA), lowest peptide concentration recognized",Binder
1,10 ng/mL,B1
2,10 ng/mL,B2
3,10 ng/mL,B3
4,10 ng/mL,B4
5,10 ng/mL,B5
6,10 ng/mL,B6
7,10 ng/mL,B7
